Laboratory results as given in the supplement of paper PMC7125110.
± gives the standard error. For some assays here: Fewer inactive variants are shown than the library holds.

B1: glmS ribozyme (parent)
chain: AUAAAAGCGCCAGAACUACAGAAAUGUAGUUGACGAGGAGGAGGUUUAUCGAAUUUUCGGCGGAUGCCUCCAAA

What was measured:
Conditions in all cases: with glucosamine-6-phosphate
glucosamine-6-phosphate [1] = variants of: B1; assay: kcat; higher = faster cleavage; RNA array
How it was run: (§1)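 Tiles bearing barcoded ribozyme variants, transcribed in situ by E. coli RNA polymerase on sequenced MiSeq chips, were imaged over ~14 h at 37 °C using a hybridised Cy3 probe. Glucosamine-6-phosphate was supplied at 40 μM to 10 mM in HEPES/KCl/Mg(OAc)2 buffer. kobs came from one- or two-exponential decay fits to normalised per-tile medians, and weighted Michaelis–Menten fits then provided kcat and KM.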

glucosamine-6-phosphate [2] = variants of: B1; assay: KM; higher = weaker cofactor use; RNA array
How it was run: as §1

glucosamine-6-phosphate [3] = variants of: B1; assay: self-cleavage kobs at 160 uM GlcN6P; higher = faster cleavage; RNA array
How it was run: as §1

glucosamine-6-phosphate [4] = variants of: B1; assay: self-cleavage kobs at 640 uM GlcN6P; higher = faster cleavage; RNA array
How it was run: as §1

glucosamine-6-phosphate [5] = variants of: B1; assay: self-cleavage kobs at 2500 uM GlcN6P; higher = faster cleavage; RNA array
How it was run: as §1

glucosamine-6-phosphate [6] = variants of: B1; assay: self-cleavage kobs at 10000 uM GlcN6P; higher = faster cleavage; RNA array
How it was run: as §1

glucosamine-6-phosphate [7] = variants of: B1; assay: self-cleavage kobs at 40 uM GlcN6P; higher = faster cleavage; RNA array
How it was run: as §1

A14G A48G
kcat (glucosamine-6-phosphate [1]): 0.000249 ± 3.2e-05 s⁻¹ | KM (glucosamine-6-phosphate [2]): 0.648 ± 0.22 mM | self-cleavage kobs at 160 uM GlcN6P (glucosamine-6-phosphate [3]): 3.64e-05 ± 1.4e-05 s⁻¹ | self-cleavage kobs at 640 uM GlcN6P (glucosamine-6-phosphate [4]): 0.000128 ± 1.4e-05 s⁻¹ | self-cleavage kobs at 2500 uM GlcN6P (glucosamine-6-phosphate [5]): 0.000232 ± 2.6e-05 s⁻¹ | self-cleavage kobs at 10000 uM GlcN6P (glucosamine-6-phosphate [6]): 0.000203 ± 2.9e-05 s⁻¹

C10U U47C
kcat (glucosamine-6-phosphate [1]): < 1e-05 s⁻¹ | self-cleavage kobs at 40 uM GlcN6P (glucosamine-6-phosphate [7]): < 1e-05 s⁻¹ | self-cleavage kobs at 640 uM GlcN6P (glucosamine-6-phosphate [4]): < 1e-05 s⁻¹

G41A
kcat (glucosamine-6-phosphate [1]): 0.00567 ± 0.0025 s⁻¹ | self-cleavage kobs at 40 uM GlcN6P (glucosamine-6-phosphate [7]): 0.000349 ± 0.00013 s⁻¹ | self-cleavage kobs at 160 uM GlcN6P (glucosamine-6-phosphate [3]): 0.00036 ± 6.4e-05 s⁻¹ | self-cleavage kobs at 640 uM GlcN6P (glucosamine-6-phosphate [4]): 0.000923 ± 0.0001 s⁻¹ | self-cleavage kobs at 2500 uM GlcN6P (glucosamine-6-phosphate [5]): 0.00264 ± 0.00017 s⁻¹

U30C C70A
kcat (glucosamine-6-phosphate [1]): 5.42e-05 ± 6.4e-06 s⁻¹ | self-cleavage kobs at 160 uM GlcN6P (glucosamine-6-phosphate [3]): 5.93e-05 ± 2.3e-05 s⁻¹ | self-cleavage kobs at 640 uM GlcN6P (glucosamine-6-phosphate [4]): 7.04e-05 ± 2.5e-05 s⁻¹ | self-cleavage kobs at 2500 uM GlcN6P (glucosamine-6-phosphate [5]): 5.57e-05 ± 1.8e-05 s⁻¹ | self-cleavage kobs at 10000 uM GlcN6P (glucosamine-6-phosphate [6]): 4.43e-05 ± 1.5e-05 s⁻¹

A12U U57C
kcat (glucosamine-6-phosphate [1]): 0.00174 ± 0.00086 s⁻¹ | self-cleavage kobs at 40 uM GlcN6P (glucosamine-6-phosphate [7]): 6.27e-05 ± 2.3e-05 s⁻¹ | self-cleavage kobs at 160 uM GlcN6P (glucosamine-6-phosphate [3]): 6.12e-05 ± 2.3e-05 s⁻¹ | self-cleavage kobs at 640 uM GlcN6P (glucosamine-6-phosphate [4]): 0.000217 ± 3.9e-05 s⁻¹ | self-cleavage kobs at 2500 uM GlcN6P (glucosamine-6-phosphate [5]): 0.000638 ± 0.00014 s⁻¹ | self-cleavage kobs at 10000 uM GlcN6P (glucosamine-6-phosphate [6]): 0.00126 ± 0.00038 s⁻¹

C16A G29A
kcat (glucosamine-6-phosphate [1]): 0.00235 ± 0.00058 s⁻¹ | KM (glucosamine-6-phosphate [2]): 1.79 ± 0.63 mM | self-cleavage kobs at 40 uM GlcN6P (glucosamine-6-phosphate [7]): 7.39e-05 ± 1.3e-05 s⁻¹ | self-cleavage kobs at 160 uM GlcN6P (glucosamine-6-phosphate [3]): 0.000175 ± 3.3e-05 s⁻¹ | self-cleavage kobs at 640 uM GlcN6P (glucosamine-6-phosphate [4]): 0.000549 ± 9.9e-05 s⁻¹ | self-cleavage kobs at 2500 uM GlcN6P (glucosamine-6-phosphate [5]): 0.00127 ± 0.00024 s⁻¹ | self-cleavage kobs at 10000 uM GlcN6P (glucosamine-6-phosphate [6]): 0.00227 ± 0.00042 s⁻¹

A12C C58U
kcat (glucosamine-6-phosphate [1]): 0.000159 ± 1.6e-05 s⁻¹ | KM (glucosamine-6-phosphate [2]): 6.36 ± 1.2 mM | self-cleavage kobs at 2500 uM GlcN6P (glucosamine-6-phosphate [5]): 4.66e-05 ± 9.5e-06 s⁻¹ | self-cleavage kobs at 10000 uM GlcN6P (glucosamine-6-phosphate [6]): 9.68e-05 ± 1.2e-05 s⁻¹

G37A G66U
kcat (glucosamine-6-phosphate [1]): 0.000462 ± 0.00011 s⁻¹ | KM (glucosamine-6-phosphate [2]): 3.94 ± 1.5 mM | self-cleavage kobs at 640 uM GlcN6P (glucosamine-6-phosphate [4]): 5.56e-05 ± 1.3e-05 s⁻¹ | self-cleavage kobs at 2500 uM GlcN6P (glucosamine-6-phosphate [5]): 0.000217 ± 3.4e-05 s⁻¹ | self-cleavage kobs at 10000 uM GlcN6P (glucosamine-6-phosphate [6]): 0.000301 ± 6.5e-05 s⁻¹

C16A G32C
kcat (glucosamine-6-phosphate [1]): 9.38e-05 ± 2.3e-06 s⁻¹ | KM (glucosamine-6-phosphate [2]): 1.22 ± 0.14 mM | self-cleavage kobs at 640 uM GlcN6P (glucosamine-6-phosphate [4]): 3.44e-05 ± 1.6e-05 s⁻¹ | self-cleavage kobs at 2500 uM GlcN6P (glucosamine-6-phosphate [5]): 5.99e-05 ± 1.7e-05 s⁻¹ | self-cleavage kobs at 10000 uM GlcN6P (glucosamine-6-phosphate [6]): 8.41e-05 ± 1e-05 s⁻¹

C10G C67U
kcat (glucosamine-6-phosphate [1]): < 1e-05 s⁻¹ | self-cleavage kobs at 40 uM GlcN6P (glucosamine-6-phosphate [7]): < 1e-05 s⁻¹

A6G A53C U54A
kcat (glucosamine-6-phosphate [1]): 5.34e-05 ± 9e-06 s⁻¹ | self-cleavage kobs at 40 uM GlcN6P (glucosamine-6-phosphate [7]): < 1e-05 s⁻¹ | self-cleavage kobs at 160 uM GlcN6P (glucosamine-6-phosphate [3]): < 1e-05 s⁻¹ | self-cleavage kobs at 2500 uM GlcN6P (glucosamine-6-phosphate [5]): 5.76e-05 ± 1.9e-05 s⁻¹ | self-cleavage kobs at 10000 uM GlcN6P (glucosamine-6-phosphate [6]): 4.91e-05 ± 9.2e-06 s⁻¹

G32C U45G
kcat (glucosamine-6-phosphate [1]): 2.74e-05 ± 2.5e-06 s⁻¹ | KM (glucosamine-6-phosphate [2]): 2.96 ± 1 mM | self-cleavage kobs at 40 uM GlcN6P (glucosamine-6-phosphate [7]): < 1e-05 s⁻¹ | self-cleavage kobs at 160 uM GlcN6P (glucosamine-6-phosphate [3]): < 1e-05 s⁻¹

G40U U57A
kcat (glucosamine-6-phosphate [1]): 6e-05 ± 6.8e-06 s⁻¹ | self-cleavage kobs at 40 uM GlcN6P (glucosamine-6-phosphate [7]): < 1e-05 s⁻¹ | self-cleavage kobs at 10000 uM GlcN6P (glucosamine-6-phosphate [6]): 2.24e-05 ± 1e-05 s⁻¹

A15U G32A
kcat (glucosamine-6-phosphate [1]): 0.00116 ± 0.00015 s⁻¹ | KM (glucosamine-6-phosphate [2]): 4.44 ± 0.85 mM | self-cleavage kobs at 640 uM GlcN6P (glucosamine-6-phosphate [4]): 0.000153 ± 2.9e-05 s⁻¹ | self-cleavage kobs at 2500 uM GlcN6P (glucosamine-6-phosphate [5]): 0.000388 ± 9.4e-05 s⁻¹ | self-cleavage kobs at 10000 uM GlcN6P (glucosamine-6-phosphate [6]): 0.00082 ± 0.00016 s⁻¹

C34A G51U
kcat (glucosamine-6-phosphate [1]): 0.000727 ± 0.00012 s⁻¹ | KM (glucosamine-6-phosphate [2]): 3.28 ± 1.2 mM | self-cleavage kobs at 640 uM GlcN6P (glucosamine-6-phosphate [4]): 0.000141 ± 3e-05 s⁻¹ | self-cleavage kobs at 2500 uM GlcN6P (glucosamine-6-phosphate [5]): 0.000354 ± 6.1e-05 s⁻¹ | self-cleavage kobs at 10000 uM GlcN6P (glucosamine-6-phosphate [6]): 0.000537 ± 4.9e-05 s⁻¹

A6G C67A
kcat (glucosamine-6-phosphate [1]): 0.00012 ± 9e-06 s⁻¹ | KM (glucosamine-6-phosphate [2]): 3.13 ± 0.67 mM | self-cleavage kobs at 40 uM GlcN6P (glucosamine-6-phosphate [7]): < 1e-05 s⁻¹ | self-cleavage kobs at 10000 uM GlcN6P (glucosamine-6-phosphate [6]): 9.19e-05 ± 1.6e-05 s⁻¹
